“Also recorded” adds a separate entry of the source. Each block holds one molecule with its values, some of them ahead of it.
How the values were obtained:
[1] = target: T1, CTCF zinc finger domains 1–11 (residues 263–582), MBP-fused (Homo sapiens, UniProt P49711); assay: Biolayer interferometry (BLI), immobilised BRK-BRG1 vs MBP-fused CTCF zinc fingers 1–11; format: binding
T1 construct: CTCF zinc finger domains 1–11 (residues 263–582) and 4–8 (residues 348–494); made in house; host or cells: E. coli BL21
Method: (§1) 4.8. Recombinant CTCF Zinc Finger Domains 1–11 and 4–8 Expression and Purification
(§2) The plasmids CTCF-ZF1-11-pMalC2G and CTF-ZF4-8-pMalC2G, obtained as previously reported, were used to transform E. coli BL21 host strain. Transformed colonies were inoculated in LB 0.2% glucose medium and grown a 37 °C, until the culture reached the optical density of 0.6 nm at 600 nm (OD600). At this point of growth, 200 µM ZnSO4 was added to the culture and the expression of the protein was induced by using IPTG 0.3 mM. When the culture reached 0.9 OD600, bacterial cells were harvested by centrifugation. Pellets were resuspended in PBS (pH 7.4) and lysed by sonication on ice. Lysates were centrifuged for 30 min at 27.500 relative centrifugal force and the supernatants containing the expressed proteins were loaded on amylose resin (New England Biolabs, Milan, Italy), according to the manufacturer’s protocol, and incubated overnight under rotation. Following washes with 1X PBS, the purified proteins MBP-CTF-ZF4-8 and MBP-CTCF-ZF1-11 were obtained adding maltose elution buffer (10 mM maltose, 1X PBS). Then, the affinity-purified proteins were loaded onto an HiLoad 26/60 Superdex 75 gel filtration chromatography column (GE Healthcare, Milan, Italy) equilibrated and eluted with PBS. The purified products were finally concentrated using a Amicon Ultra Centrifugal Filter (Merck).
4.9. […]

[2] = target: T2, CTCF zinc finger domains 4–8 (residues 348–494), MBP-fused (Homo sapiens, UniProt P49711); assay: Biolayer interferometry (BLI), immobilised BRK-BRG1 vs MBP-fused CTCF zinc fingers 4–8; format: binding
T2 construct: and 4–8 (residues 348–494) in a bacterial expression system; made in house; host or cells: E. coli BL21
Method: as §1, §2
4.9. […]

[3] = system: BRK-BRG1 (BRK domain of human BRG1, region 612–656); assay: BLI detection limit, MBP-fused CTCF zinc finger domains on immobilised BRK-BRG1; format: binding; settings: PBS
Method: 4.9. Binding of BRK-BRG1 to Recombinant CTFC Multiple Zinc Finger Domains by Biolayer Interferometry (BLI)
BLI measurements were performed using a BLItz system and ARG2 commercial biosensors (ForteBio, CA, United States), following the manufacturer’s instructions. A reduced volume sample cuvette (4 µL) was used for all the experiments. Assays were performed by immobilizing the synthetic BRK-BRG1 domain on the surface of the sensor chip and exposing it to solutions of recombinant CTFC domain 1–11 or CTCF domains 4–8, both fused to MBP, dissolved in PBS at increasing concentrations. After pre-hydration for 10 min in PBS buffer, the immobilization was achieved by pre-activating the sensor surface for 180 s with EDC/NHS, both in water, at 0.4 M and 0.1 M, respectively. Then, the sensor chip was exposed for 300 s to a solution of BRK-BRG1 at 200 µg/mL in sodium acetate pH 4.5. After extensive washing with buffer, the sensor chip surface was deactivated using 1 M ethanolamine in water pH 8.5 for 180 s. Binding assays were performed after exposure for 30 s to PBS (running buffer) to acquire the initial baseline. Next, the derivatized chip was exposed to the CTFC protein solutions in PBS for 120 s, followed by PBS washes (120 s). Then, the sensor chip was fully regenerated, restoring the baseline, by treatment with a solution of NaOH 5 mM for 10 s and a further wash with PBS. […]

[4] = Precipitation of MBP-fused CTCF domains 1–11 in PBS; format: physicochemical; settings: concentrations higher than 3.0 µM
Method: as §2, with “(Merck). […]” for “(Merck).”

[5] = target: T3, MBP-fused CTCF zinc finger domains 4–8 (residues 348–494) (human, UniProt P49711 348-494); assay: BLI; synthetic BRK-BRG1 immobilised on ARG2 biosensor by EDC/NHS (BLItz); MBP-fused CTCF zinc finger domains as analytes in PBS; free MBP signal subtracted; KD from plateau shifts, one binding site hyperbola; settings: both partners purified
T3 construct: CTCF zinc finger domains 4-8, residues 348-494; also called MBP-CTF-ZF4-8; CTCF domains 4–8; source: E. coli BL21, purified (amylose resin, Superdex 75 gel filtration)
T3 sequence (looked up): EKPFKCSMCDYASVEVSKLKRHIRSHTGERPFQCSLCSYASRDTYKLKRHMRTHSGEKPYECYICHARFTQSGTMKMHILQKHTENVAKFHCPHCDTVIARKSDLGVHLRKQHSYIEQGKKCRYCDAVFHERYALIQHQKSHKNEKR

[6] = target: T4, MBP-fused CTCF zinc finger domains 1–11 (residues 263–582) (human, UniProt P49711 263-582); assay: as above; settings: both partners purified
T4 construct: CTCF zinc finger domains 1-11, residues 263-582; also called MBP-CTCF-ZF1-11; CTCF domains 1–11; source: E. coli BL21, purified (amylose resin, Superdex 75 gel filtration)
T4 sequence (looked up): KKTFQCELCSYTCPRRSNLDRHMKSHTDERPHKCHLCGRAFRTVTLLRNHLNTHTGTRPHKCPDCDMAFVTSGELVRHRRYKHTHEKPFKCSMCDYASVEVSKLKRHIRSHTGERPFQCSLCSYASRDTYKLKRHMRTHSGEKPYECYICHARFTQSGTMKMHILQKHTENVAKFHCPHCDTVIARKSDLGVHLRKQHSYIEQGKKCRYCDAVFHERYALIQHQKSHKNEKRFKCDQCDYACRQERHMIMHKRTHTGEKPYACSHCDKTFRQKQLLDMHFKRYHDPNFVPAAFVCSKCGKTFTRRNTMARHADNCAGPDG

Molecule: Ac-MSDLPVKVIHVESGKILTGTDAPKAGQLEAWLEMNPGYEVAPRSD-NH2 [BRK-BRG1]
direct binding to CTCF zinc finger region 1–11, result in words [1]: binds the CTCF region including the eleven zinc finger domains
direct binding to CTCF zinc fingers 4–8, result in words [2]: direct binding; also recorded: the region encompassing domains from 4 to 8 strongly contributes to this interaction; also recorded: binds the zinc finger motifs 4–8 of CTCF

B1: MBP-fused CTFC domains 1–11: recombinant maltose-binding protein (MBP)-fused CTCF zinc finger domains 1–11 (residues 263–582) (protein)
chain: KKTFQCELCSYTCPRRSNLDRHMKSHTDERPHKCHLCGRAFRTVTLLRNHLNTHTGTRPHKCPDCDMAFVTSGELVRHRRYKHTHEKPFKCSMCDYASVEVSKLKRHIRSHTGERPFQCSLCSYASRDTYKLKRHMRTHSGEKPYECYICHARFTQSGTMKMHILQKHTENVAKFHCPHCDTVIARKSDLGVHLRKQHSYIEQGKKCRYCDAVFHERYALIQHQKSHKNEKRFKCDQCDYACRQERHMIMHKRTHTGEKPYACSHCDKTFRQKQLLDMHFKRYHDPNFVPAAFVCSKCGKTFTRRNTMARHADNCAGPDG
modifications: left off: MBP, end not stated, kept
BLI shift at low concentration, domains 1–11 ([3]; solutions at concentrations below 0.5 µM): No shifts were measured
precipitation of the protein [4]: the protein underwent precipitation

Kd [5]: ~95 nM
Kd [6]: ~2300 nM
B2: BRK domain of BRG1, region 612–656, synthetic polypeptide (peptide)
chain: Ac-MSDLPVKVIHVESGKILTGTDAPKAGQLEAWLEMNPGYEVAPRSD-NH2
notes: BRK domain of human BRG1, region 612-656; Coupled to the BLI sensor by EDC/NHS chemistry; also called BRK-BRG1; BRK-BRG1 domain; source: synthetic peptide (solid phase synthesis, purified by RP-HPLC)

B3: MBP-fused CTFC domain 4–8: recombinant maltose-binding protein (MBP)-fused CTCF zinc finger domains 4–8 (residues 348–494) (protein)
chain: EKPFKCSMCDYASVEVSKLKRHIRSHTGERPFQCSLCSYASRDTYKLKRHMRTHSGEKPYECYICHARFTQSGTMKMHILQKHTENVAKFHCPHCDTVIARKSDLGVHLRKQHSYIEQGKKCRYCDAVFHERYALIQHQKSHKNEKR
modifications: left off: MBP, end not stated, kept
BLI shift at low concentration, domains 4–8 ([3]; solutions at concentrations below 10 nM): No shifts were measured
